One substance from patent US20210301005A1 can be followed below.

For orientation: IC50 means the midpoint of a concentration-inhibition curve. High values mean weaker potency, low ones greater potency.

Test [1] concerns the target human TGFβ1, mature receptor-binding domain (human) (UniProt P01137).
Test [2] has as its target human TGFβ2, mature receptor-binding domain (human).
The target of test [3] is human TGFβ3, mature dimeric form (human) (UniProt P10600).
Test [4] addresses human TGFβ1, mature receptor-binding domain (human) (UniProt P01137). The source holds these as a separate data set.
In test [5] the target is human TGFβ2, mature receptor-binding domain (human). This is another data set of the same source.
human TGFβ2, mature receptor-binding domain (human), sequence (P09858 303-414 limits assumed): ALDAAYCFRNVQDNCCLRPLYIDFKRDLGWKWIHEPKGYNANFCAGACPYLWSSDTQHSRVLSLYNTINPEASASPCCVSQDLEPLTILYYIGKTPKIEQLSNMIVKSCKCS
The target in test [6] is human TGFβ3, mature dimeric form (human) (UniProt P10600). The source holds these as a separate data set.

Fc-LAP1, sequence (P01137 30-278 limits assumed): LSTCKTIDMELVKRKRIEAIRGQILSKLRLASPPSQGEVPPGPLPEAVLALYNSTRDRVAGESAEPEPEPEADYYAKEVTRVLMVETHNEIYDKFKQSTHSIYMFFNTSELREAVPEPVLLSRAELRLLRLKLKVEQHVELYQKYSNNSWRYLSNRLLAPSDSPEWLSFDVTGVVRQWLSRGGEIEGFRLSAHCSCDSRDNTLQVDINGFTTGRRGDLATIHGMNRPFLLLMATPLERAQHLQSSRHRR
human TGFβ3, mature dimeric form (human), sequence (P10600 301-412): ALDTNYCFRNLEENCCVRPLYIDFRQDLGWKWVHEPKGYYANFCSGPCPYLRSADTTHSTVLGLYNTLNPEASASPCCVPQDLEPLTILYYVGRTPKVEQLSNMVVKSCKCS
human TGFβ1, mature receptor-binding domain (human), sequence (P01137 279-390 limits assumed): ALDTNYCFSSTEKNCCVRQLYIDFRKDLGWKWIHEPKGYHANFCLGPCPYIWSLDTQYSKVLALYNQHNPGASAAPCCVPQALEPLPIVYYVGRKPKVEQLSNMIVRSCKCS

Turning to “Fc-LAP1 (from UniProt P01137 30-278) (Fc fusion)”, the IC50 in test [1] was 96 nM; in test [2], 64 nM; in test [3], 43 nM. Further, the IC50 (read off the curve) came to 0.1 nM in test [4], 0.07 nM in test [5] and 0.04 nM in test [6].
